Experimental data reported in publication PMC11832770, “NADH-bound AIF activates the mitochondrial CHCHD4/MIA40 chaperone by a substrate-mimicry mechanism” (The EMBO Journal, 2025).
One block for each binder: values may come before it.

B2: CHCHD4-SPS (C53S/C55S), full length (natural protein, human, UniProt Q8N4Q1 1-142, looked up)
chain: MSYCRQEGKDRIIFVTKEDHETPSSAELVADDPNDPYEEHGLILPNGNINWNSPSLGGMASGPCGEQFKSAFSCFHYSTEEIKGSDCVDQFRAMQECMQKYPDLYPQEDEDEEEEREKKPAEQAEETAPIEATATKEEEGSS
notes: source: E. coli Rosetta2Gami(DE3), purified (Ni-NTA, PreScission cleavage, subtractive Ni-NTA, Superdex 75); not shown: GB1-6X-His, N-terminal, cleaved

How the values were obtained:
[1] = target: T1, CHCHD4-AIA-A-SPS (I12A/F14A/H20A/C53S/C55S) (human, UniProt Q8N4Q1 1-142, I12A | F14A | H20A | C53S | C55S, heat-unfolded and TCEP-reduced (free cysteines). The printed accession E5RGN4 is not among the candidates; the canonical human CHCHD10 entry Q8WYQ3 (used for the AlphaFold model) is taken instead. …); assay: ITC
T1 sequence: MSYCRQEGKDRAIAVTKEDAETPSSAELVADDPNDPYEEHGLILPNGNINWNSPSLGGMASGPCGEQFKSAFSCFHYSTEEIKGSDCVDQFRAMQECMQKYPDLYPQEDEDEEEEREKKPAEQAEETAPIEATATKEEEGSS

[2] = target: T2, ΔN-CHCHD4-SPS (residues 40-142, C53S/C55S) (human, UniProt Q8N4Q1 40-142, C53S | C55S, heat-unfolded and TCEP-reduced (free cysteines). The printed accession E5RGN4 is not among the candidates; the canonical human CHCHD10 entry Q8WYQ3 (used for the AlphaFold model) is taken instead. …); assay: ITC
T2 sequence: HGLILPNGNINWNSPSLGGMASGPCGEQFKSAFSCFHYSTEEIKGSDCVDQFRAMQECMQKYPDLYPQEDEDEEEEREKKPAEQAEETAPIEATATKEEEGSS

[3] = target: T3, CHCHD4-SPS (C53S/C55S), full length (human, UniProt Q8N4Q1 1-142, C53S | C55S, heat-unfolded and TCEP-reduced (free cysteines). The printed accession E5RGN4 is not among the candidates; the canonical human CHCHD10 entry Q8WYQ3 (used for the AlphaFold model) is taken instead. …); assay: ITC
T3 sequence: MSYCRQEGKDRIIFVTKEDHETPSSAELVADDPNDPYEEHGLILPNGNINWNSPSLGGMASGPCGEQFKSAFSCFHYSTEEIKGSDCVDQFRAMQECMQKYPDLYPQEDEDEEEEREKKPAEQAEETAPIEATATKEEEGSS

both import substrates = assay: ITC; 700-750 µM CPC-inactivated CHCHD4 constructs titrated into 50 µM unfolded substrate; 25 mM HEPES pH 7.5, 150 mM NaCl, 1 mM TCEP; 25 °C
Atto488-AIF(78-613)/NADH [4] = target: T4, Atto488-AIF(78-613)/NADH (human, UniProt O95831 78-613, ATTO 488 (NHS ester) on the N-terminus); assay: MST; CHCHD4 constructs titrated (1.8 nM–15 or 30 µM) into 100 nM Atto488-AIF(78-613) with unlabeled AIF and NADH (pre-formed charge-transfer complex); 25 mM HEPES pH 7.5, 150 mM NaCl, 0.01% Tween-20, 5 mM TCEP; 25 °C; first block of Table 1 (Fig. 1B); settings: both partners purified
T4 construct: Apoptosis-inducing factor (AIF), human, residues 78-613; also called Atto488-AIF-NADH; Atto488-AIF/NADH

Atto488-AIF(78-613)/NADH [5] = target: T4, Atto488-AIF(78-613)/NADH; assay: MST; CHCHD4 interface mutants titrated (1.8 nM–15 or 30 µM) into 100 nM Atto488-AIF(78-613) with unlabeled AIF and NADH; same buffer, 25 °C; third block of Table 1 (Fig. 2A), fitted with a Hill coefficient; settings: both partners purified
[6] = target: B2; assay: MST; CHCHD4-SPS titrated (15 nM–30 µM) into 100 nM unfolded Atto488-ΔN-CHCHD4-SPS in the presence of AIF(78-613) and NADH (2x stock 30 µM AIF/300 µM NADH); 25 mM HEPES pH 7.5, 150 mM NaCl, 0.01% Tween-20, 5 mM TCEP; 25 °C; a sample with added CHCHD4-N45 showed decreased binding; settings: both partners purified
[7] = target: T5, CHCHD6, unfolded and reduced (human, UniProt Q9BRQ6 1-235); assay: ITC; 700-750 µM CPC-inactivated CHCHD4 constructs titrated into 50 µM unfolded substrate; 25 mM HEPES pH 7.5, 150 mM NaCl, 1 mM TCEP; 25 °C; settings: both partners purified
T5 construct: CHCHD6 (MIC25), human, CX9C import substrate; construct from the DNASU Plasmid Repository inserted into pET30a; also called unfolded CHCHD6 substrate; MIC25; source: E. coli Rosetta2Gami(DE3), purified; unfolded by heating at 70 °C for 20 min with TCEP; not shown: GB1-6X-His, N-terminal, cleaved
T5 sequence (looked up): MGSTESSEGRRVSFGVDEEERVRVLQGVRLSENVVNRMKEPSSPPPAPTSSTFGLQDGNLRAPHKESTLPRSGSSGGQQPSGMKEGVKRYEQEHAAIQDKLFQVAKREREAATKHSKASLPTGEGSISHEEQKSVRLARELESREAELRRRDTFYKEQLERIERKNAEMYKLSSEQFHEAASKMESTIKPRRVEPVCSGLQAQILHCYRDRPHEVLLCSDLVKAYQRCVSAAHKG

[8] = target: the molecule itself; assay: SEC; Superdex 75 10/300, 25 mM HEPES pH 7.5, 150 mM NaCl, without reducing agent (also ± 5 mM βME and after 0-10 mM TCEP); 200 µM samples; monomer against disulfide-mediated dimer
[9] = target: T6, CHCHD4-SPS (C53S/C55S), full length (human, UniProt Q8N4Q1 1-142, C53S | C55S); assay: ITC
T6 sequence: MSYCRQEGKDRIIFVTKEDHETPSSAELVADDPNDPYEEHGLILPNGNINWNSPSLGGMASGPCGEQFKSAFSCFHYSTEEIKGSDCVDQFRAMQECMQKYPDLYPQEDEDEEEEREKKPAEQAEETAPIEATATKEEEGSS

[10] = target: T7, ΔN-CHCHD4-SPS (residues 40-142, C53S/C55S) (human, UniProt Q8N4Q1 40-142, C53S | C55S); assay: ITC
T7 sequence: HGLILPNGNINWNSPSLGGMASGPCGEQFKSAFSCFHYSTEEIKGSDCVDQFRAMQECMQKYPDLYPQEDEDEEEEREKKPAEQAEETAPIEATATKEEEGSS

[11] = target: T8, CHCHD4-AIA-A-SPS (I12A/F14A/H20A/C53S/C55S) (human, UniProt Q8N4Q1 1-142, I12A | F14A | H20A | C53S | C55S); assay: ITC
T8 sequence: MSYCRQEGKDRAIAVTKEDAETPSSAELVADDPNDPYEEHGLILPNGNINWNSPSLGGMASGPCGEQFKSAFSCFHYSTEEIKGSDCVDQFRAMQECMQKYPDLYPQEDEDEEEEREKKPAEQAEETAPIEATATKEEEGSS

AIF(104-613)-W196A = target: T9, AIF(104-613)-W196A (human, UniProt O95831 104-613, W196A); assay: crystal structure; AIF(104-613)-W196A-CHCHD4(1-45) chimera, hanging drop, 0.1 M HEPES pH 8, 0.1 M NaCl, 18% PEG3350; CHCHD4 N45 linked to the C-terminus of AIF by …; AIF dimer with N45 resolved on both monomers; settings: both partners purified
T9 construct: Apoptosis-inducing factor (AIF), human, residues 104-613; Stands only for the AIF half of the crystallised chimera, so that the AIF-CHCHD4 contact can be written as a pair; also called dimer-permissive AIF (104-613) W196A mutant; source: E. coli Rosetta2(DE3), purified, as the AIF part of the chimera m17
T9 sequence (O95831 104-613 W196A): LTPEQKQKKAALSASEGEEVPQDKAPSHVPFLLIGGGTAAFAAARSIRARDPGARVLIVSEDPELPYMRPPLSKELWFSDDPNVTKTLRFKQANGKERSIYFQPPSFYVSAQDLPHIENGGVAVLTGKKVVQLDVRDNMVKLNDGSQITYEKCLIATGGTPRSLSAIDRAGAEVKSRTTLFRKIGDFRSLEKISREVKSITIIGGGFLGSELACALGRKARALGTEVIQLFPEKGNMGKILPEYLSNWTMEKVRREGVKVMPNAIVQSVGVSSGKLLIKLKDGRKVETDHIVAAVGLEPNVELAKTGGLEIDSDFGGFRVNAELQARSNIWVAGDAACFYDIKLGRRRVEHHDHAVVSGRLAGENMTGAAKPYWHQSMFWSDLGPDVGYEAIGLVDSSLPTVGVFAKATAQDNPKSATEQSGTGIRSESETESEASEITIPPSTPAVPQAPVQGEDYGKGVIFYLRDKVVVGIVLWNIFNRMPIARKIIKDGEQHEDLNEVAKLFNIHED

T4 sequence (O95831 78-613): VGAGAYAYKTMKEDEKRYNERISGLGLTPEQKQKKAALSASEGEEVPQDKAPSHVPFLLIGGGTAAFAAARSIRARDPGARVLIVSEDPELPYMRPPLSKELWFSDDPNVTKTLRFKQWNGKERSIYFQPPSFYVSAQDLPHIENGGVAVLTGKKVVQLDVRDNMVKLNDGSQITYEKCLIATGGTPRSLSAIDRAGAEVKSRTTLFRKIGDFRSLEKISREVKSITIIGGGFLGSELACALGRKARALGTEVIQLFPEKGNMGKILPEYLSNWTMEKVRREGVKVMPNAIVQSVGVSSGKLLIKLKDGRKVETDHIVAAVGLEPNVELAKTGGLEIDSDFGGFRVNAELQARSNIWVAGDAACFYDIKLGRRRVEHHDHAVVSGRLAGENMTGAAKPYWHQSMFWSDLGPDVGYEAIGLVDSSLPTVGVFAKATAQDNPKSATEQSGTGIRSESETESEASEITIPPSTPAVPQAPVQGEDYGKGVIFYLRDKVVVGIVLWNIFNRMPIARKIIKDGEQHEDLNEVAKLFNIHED

B1: CHCHD10, unfolded and reduced (natural protein)
chain: MPRGSRSAASRPASRPAAPSAHPPAHPPPSAAAPAPAPSGQPGLMAQMATTAAGVAVGSAVGHVMGSALTGAFSGGSSEPSQPAVQQAPTPAAPQPLQMGPCAYEIRQFLDCSTTQSDLSLCEGFSEALKQCKYYHGLSSLP
Kd [1]: 4.5 µM | Kd [2]: 6.4 µM | Kd [3]: 20.4 µM

Binder: B2
Kd (both import substrates): 18 to 40 µM | Kd (Atto488-AIF(78-613)/NADH [4]): 0.23 µM

B3: CHCHD4, wild type, full length (natural protein, human, UniProt Q8N4Q1 1-142, looked up)
chain: MSYCRQEGKDRIIFVTKEDHETPSSAELVADDPNDPYEEHGLILPNGNINWNCPCLGGMASGPCGEQFKSAFSCFHYSTEEIKGSDCVDQFRAMQECMQKYPDLYPQEDEDEEEEREKKPAEQAEETAPIEATATKEEEGSS
notes: also called CHCHD4-WT; MIA40; source: E. coli Rosetta2Gami(DE3), purified (Ni-NTA, PreScission cleavage, subtractive Ni-NTA, Superdex 75); not shown: GB1-6X-His, N-terminal, cleaved
Kd (Atto488-AIF(78-613)/NADH [5]): 0.18 µM | Kd (Atto488-AIF(78-613)/NADH [4]): 0.58 µM

B6: CHCHD4-AIA-A-SPS (I12A/F14A/H20A/C53S/C55S) (natural protein, human, UniProt Q8N4Q1 1-142, looked up)
chain: MSYCRQEGKDRAIAVTKEDAETPSSAELVADDPNDPYEEHGLILPNGNINWNSPSLGGMASGPCGEQFKSAFSCFHYSTEEIKGSDCVDQFRAMQECMQKYPDLYPQEDEDEEEEREKKPAEQAEETAPIEATATKEEEGSS
notes: CHCHD4/MIA40, human, full length; source: E. coli Rosetta2Gami(DE3), purified (Ni-NTA, PreScission cleavage, subtractive Ni-NTA, Superdex 75); not shown: GB1-6X-His, N-terminal, cleaved
binding result [7]: binds

B8: ΔN-CHCHD4-SPS (residues 40-142, C53S/C55S) (domain or fragment, human, UniProt Q8N4Q1 40-142, looked up)
chain: HGLILPNGNINWNSPSLGGMASGPCGEQFKSAFSCFHYSTEEIKGSDCVDQFRAMQECMQKYPDLYPQEDEDEEEEREKKPAEQAEETAPIEATATKEEEGSS
notes: Folded, as titrant in ITC and in analytical SEC; also called ΔN-SPS; source: E. coli Rosetta2Gami(DE3), purified (Ni-NTA, PreScission cleavage, subtractive Ni-NTA, Superdex 75); not shown: GB1-6X-His, N-terminal, cleaved
binding result [7]: binds

B9: ΔN-CHCHD4 (residues 40-142) (domain or fragment, human, UniProt Q8N4Q1 40-142, looked up)
chain: HGLILPNGNINWNCPCLGGMASGPCGEQFKSAFSCFHYSTEEIKGSDCVDQFRAMQECMQKYPDLYPQEDEDEEEEREKKPAEQAEETAPIEATATKEEEGSS
notes: also called N-terminal truncation mutant; source: E. coli Rosetta2Gami(DE3), purified (Ni-NTA, PreScission cleavage, subtractive Ni-NTA, Superdex 75); not shown: GB1-6X-His, N-terminal, cleaved
binding result [8]: binds

B10: CHCHD6, unfolded and reduced (natural protein)
chain: MGSTESSEGRRVSFGVDEEERVRVLQGVRLSENVVNRMKEPSSPPPAPTSSTFGLQDGNLRAPHKESTLPRSGSSGGQQPSGMKEGVKRYEQEHAAIQDKLFQVAKREREAATKHSKASLPTGEGSISHEEQKSVRLARELESREAELRRRDTFYKEQLERIERKNAEMYKLSSEQFHEAASKMESTIKPRRVEPVCSGLQAQILHCYRDRPHEVLLCSDLVKAYQRCVSAAHKG
Kd [9]: 26.5 µM | Kd [10]: 14.9 µM | Kd [11]: 8.3 µM

The next lines start with the values.

Kd (Atto488-AIF(78-613)/NADH [5]): 0.24 µM
B4: CHCHD4-L28D (natural protein, human, UniProt Q8N4Q1 1-142, looked up)
chain: MSYCRQEGKDRIIFVTKEDHETPSSAEDVADDPNDPYEEHGLILPNGNINWNCPCLGGMASGPCGEQFKSAFSCFHYSTEEIKGSDCVDQFRAMQECMQKYPDLYPQEDEDEEEEREKKPAEQAEETAPIEATATKEEEGSS
notes: as for B6

binding result [6]: binds
B5: Atto488-ΔN-CHCHD4-SPS, unfolded (domain or fragment, human, UniProt Q8N4Q1 40-142, looked up)
chain: HGLILPNGNINWNSPSLGGMASGPCGEQFKSAFSCFHYSTEEIKGSDCVDQFRAMQECMQKYPDLYPQEDEDEEEEREKKPAEQAEETAPIEATATKEEEGSS
modifications: ATTO 488 (NHS ester) on the N-terminus
notes: also called unfolded CHCH substrate; unfolded fluorescent substrate; not shown: GB1-6X-His, N-terminal, cleaved

Kd (Atto488-AIF(78-613)/NADH [5]): 3 µM
B7: CHCHD4-AIA (I12A/F14A) (natural protein, human, UniProt Q8N4Q1 1-142, looked up)
chain: MSYCRQEGKDRAIAVTKEDHETPSSAELVADDPNDPYEEHGLILPNGNINWNCPCLGGMASGPCGEQFKSAFSCFHYSTEEIKGSDCVDQFRAMQECMQKYPDLYPQEDEDEEEEREKKPAEQAEETAPIEATATKEEEGSS
notes: CHCHD4/MIA40, human, full length; The methods print F12A/I14A for this mutant; the results print I12A/F14A; also called β-hairpin mutant; source: E. coli Rosetta2Gami(DE3), purified (Ni-NTA, PreScission cleavage, subtractive Ni-NTA, Superdex 75); not shown: GB1-6X-His, N-terminal, cleaved

binding result (AIF(104-613)-W196A): binds | Kd (Atto488-AIF(78-613)/NADH [4]): 0.63 µM
B11: CHCHD4-N45 (residues 1-45) (domain or fragment, human, UniProt Q8N4Q1 1-45, looked up)
chain: MSYCRQEGKDRIIFVTKEDHETPSSAELVADDPNDPYEEHGLILP
notes: In the crystal structure (PDB 8VGY) the same residues 1-45 stood linked to the C-terminus of AIF(104-613)-W196A; also called CHCHD4(1-45); source: E. coli Rosetta2Gami(DE3), purified (Ni-NTA, PreScission cleavage, subtractive Ni-NTA, Superdex 75); not shown: GB1-6X-His, N-terminal, cleaved
